In the experiment the target is cell surface of 293 AAV cells (the filing names αvβ3 and αvβ5 integrins as the receptors of RGD4C). Nature of the experiment: 200000 TU/cell incubated 1 h on ice with 293AAV cells; unbound particles recovered from the medium, titrated on TG1 E. coli and counted as colonies; value relative to its control.

In turn, “M13.PAAV vector (non-targeted phagemid/AAV particle lacking RGD4C) (from UniProt P69168 19-424)” showed a binding efficiency (percentage of vectors bound to the cell surface) of 7.1%.

The substance “RGD.PAAV vector (RGD4C-targeted phagemid/AAV particle displaying the RGD4C peptide on the pIII minor coat protein)” came in with a binding efficiency (percentage of vectors bound to the cell surface) of 58.2%.
